The results in this text go back to patent US20220396632A1 (VERSEAU THERAPEUTICS, published 2022).

The target of assay [1] is T1, Human complement C4 protein (Millipore Sigma, Cat. 204886) (human, UniProt P0C0L4 20-675; P0C0L4 680-1446; P0C0L4 1454-1744, limits assumed, natural sulfotyrosines).
T1 construct: mature
Description: ELISA, 50 nM mAb on plate-bound protein. The procedure: Recombinant PSGL-1-hFc1 chimera protein consisting of PSGL-1's extracellular domain (ECD) served as a positive control. […] Primary antibody was added (25 ul per well) in duplicate at 50 nM in assay buffer (blocking buffer containing 0.05% Tween®20) into test and control (just blocked) wells and the plate incubated for 45 min at 37° C.
On the technique in general: ELISA stands for enzyme-linked immunosorbent assay.

Assay [2] concerns the target T2, Biotin PSGL-1(42-62) P55A peptide (C-terminal Lys-biotin).
T2 peptide: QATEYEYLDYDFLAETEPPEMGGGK
In words: ELISA, streptavidin-bound Ala peptide.

Assay [3] concerns the target T3, Biotin PSGL-1(42-62) D52A peptide (C-terminal Lys-biotin).
T3 peptide: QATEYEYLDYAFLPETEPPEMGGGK
In words: ELISA, streptavidin-bound Ala peptide.

For assay [4], the target named is T2, Biotin PSGL-1(42-62) P55A peptide. Description: ELISA; against wild-type PSGL-1 42-62.
The target of assay [5] is T3, Biotin PSGL-1(42-62) D52A peptide. Description: ELISA; against wild-type PSGL-1 42-62.

T1 sequence (P0C0L4 20-675 limits assumed, form in doubt, chain 1 of 3): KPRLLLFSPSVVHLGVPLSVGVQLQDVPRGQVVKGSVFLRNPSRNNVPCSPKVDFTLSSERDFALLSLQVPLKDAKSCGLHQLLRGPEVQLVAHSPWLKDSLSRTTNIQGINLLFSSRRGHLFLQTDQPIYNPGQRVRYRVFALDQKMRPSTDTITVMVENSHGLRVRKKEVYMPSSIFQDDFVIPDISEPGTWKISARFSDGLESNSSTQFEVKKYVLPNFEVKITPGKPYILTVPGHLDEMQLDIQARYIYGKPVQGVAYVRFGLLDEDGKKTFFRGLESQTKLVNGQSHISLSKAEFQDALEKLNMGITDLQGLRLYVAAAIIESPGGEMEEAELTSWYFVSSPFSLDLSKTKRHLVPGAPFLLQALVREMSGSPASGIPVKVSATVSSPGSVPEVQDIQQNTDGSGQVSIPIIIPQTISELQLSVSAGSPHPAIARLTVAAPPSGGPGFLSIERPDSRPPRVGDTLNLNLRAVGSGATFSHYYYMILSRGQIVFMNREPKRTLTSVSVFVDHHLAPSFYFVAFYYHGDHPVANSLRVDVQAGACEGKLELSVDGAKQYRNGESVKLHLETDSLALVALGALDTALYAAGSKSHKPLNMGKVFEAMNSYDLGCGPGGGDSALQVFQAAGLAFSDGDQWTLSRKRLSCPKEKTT
T1 sequence (P0C0L4 680-1446 limits assumed, form in doubt, chain 2 of 3): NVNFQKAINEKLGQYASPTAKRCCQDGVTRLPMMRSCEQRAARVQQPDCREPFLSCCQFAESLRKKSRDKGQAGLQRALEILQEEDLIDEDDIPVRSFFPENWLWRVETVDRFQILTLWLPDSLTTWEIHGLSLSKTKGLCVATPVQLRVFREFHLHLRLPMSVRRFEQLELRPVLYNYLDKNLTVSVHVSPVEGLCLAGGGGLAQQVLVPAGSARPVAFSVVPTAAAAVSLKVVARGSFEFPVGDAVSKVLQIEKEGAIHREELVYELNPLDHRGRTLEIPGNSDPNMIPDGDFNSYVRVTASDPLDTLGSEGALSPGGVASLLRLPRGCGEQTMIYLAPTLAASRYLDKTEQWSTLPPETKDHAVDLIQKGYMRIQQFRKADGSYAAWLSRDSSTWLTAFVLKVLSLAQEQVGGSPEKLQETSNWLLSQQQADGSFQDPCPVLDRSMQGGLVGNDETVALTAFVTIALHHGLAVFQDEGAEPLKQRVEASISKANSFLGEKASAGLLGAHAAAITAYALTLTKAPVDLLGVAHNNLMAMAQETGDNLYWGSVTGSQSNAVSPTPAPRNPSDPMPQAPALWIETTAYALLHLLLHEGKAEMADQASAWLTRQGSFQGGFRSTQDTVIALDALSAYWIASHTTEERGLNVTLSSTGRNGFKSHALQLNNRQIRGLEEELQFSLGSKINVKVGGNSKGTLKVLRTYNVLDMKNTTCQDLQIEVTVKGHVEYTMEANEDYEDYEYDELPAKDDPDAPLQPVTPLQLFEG
T1 sequence (P0C0L4 1454-1744 limits assumed, form in doubt, chain 3 of 3): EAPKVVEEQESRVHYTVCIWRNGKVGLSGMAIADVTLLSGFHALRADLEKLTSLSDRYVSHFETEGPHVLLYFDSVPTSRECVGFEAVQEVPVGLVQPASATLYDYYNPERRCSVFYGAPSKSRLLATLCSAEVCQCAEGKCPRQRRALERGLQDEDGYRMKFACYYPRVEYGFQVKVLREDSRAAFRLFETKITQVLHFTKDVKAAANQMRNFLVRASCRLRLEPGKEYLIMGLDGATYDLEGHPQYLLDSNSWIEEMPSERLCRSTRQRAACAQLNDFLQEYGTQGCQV

B1: 19I01 (antibody, V domains shown)
VH: EVQLVESGGGLVKPGGSRKLSCAASGFTFSDYGMHWVRQAPEKGLEWVAYISSGSSTIYYADTVKGRFTISRDNAKNTLFLQMTSLRSEDTAMYYCARGVDGYWGQGTTLTVSS
VL: DVVMTQTPLSLPVSLGDQASISCRSSQSLVHSNGNTYLHWYLQKPGQSPKFLIYKVSNRFSGVPDRFSGSGSGTDFTLKISRVEAEDLGVYFCSQTTHVPLTFGAGTKLELK
notes: From mouse immunisation; only variable domains given; also called 19101
Broadly, the EC50 is the concentration at which the effect is half-maximal. Read a low EC50 as higher potency in that assay. Take B1: the “% of binding to PSGL-1(ECD)-hFc1” value in assay [1] was at most 10%. In addition, the EC50 in assay [2] came out at 8.21 nM; in assay [3], 3.18 nM. For the same molecule, the results for the EC50Ala/EC50 wt in assay [4] and in assay [5] were 68.4 fold and 15.9 fold, respectively.

B2: 43B6 (antibody, V domains shown)
VH: EVQLQQSGPDLVKPGALVKISCKASGYSFTAYYIHWVKQSHGKSLEWIGRVNPNTGGTSYNPKFKGKAILNVDKSSSTAYMELRSLTSEDSAVYYCARSGSPYYRYDDWGQGTTLTVSS
VL: ENVLTQSPAIMSASPGEKVTMTCRASSTVNSTYLHWFQQKSGASPKLWIYGSSNLASGVPARFSGSGSGTSYSLTISSVEAEDAATYYCQQYSGYPLTFGAGTTLELK
notes: Control anti-PSGL-1 mAb, recombinant; only variable domains given; also called 43B3
B2 showed an EC50 in assay [2] of 1.8 nM. For the same molecule, the binding result in assay [3] is given as “no binding”. The molecule further had an EC50Ala/EC50 wt in assay [4] of 9.5 fold.

B3: 9F9 (antibody, V domains shown)
VH: EVQLVETGGGLVQPKGSLKLSCAASGFTFNTNAMNWVRQAPGKGLEWVARIRSKSNNYATYYADSVKDRFTISRDDTQSMIYLQMNNLKTEDTGMYYCVRGGSYWYFDVWGAGTTVTVSS
VL: DVLMTQTPLSLPVSLGDQASISCRSSQSIVNSNGNTYLEWYLQKPGQSPKLLIYKVSNRFSGVPDRFSGSGSGTDFTLKISRVEAEDLGVYYCFQGSHVPWTFGGGTKLEIK
notes: Control anti-PSGL-1 mAb, recombinant; only variable domains given; also called 9F6
Turning to B3, the EC50 in assay [2] was above 10 nM. For the same molecule, the binding result in assay [3] is listed as “no binding”. This molecule came in with an EC50Ala/EC50 wt in assay [4] above 100 fold.
